Among the data in patent publication US20090208512A1 are inhibition of hydrolysis of Factor VIII by anti-Factor VIII IgG values, retold here.

In this assay the target is human recombinant Factor VIII (human) (UniProt P00451). In words: cell-based or functional assay.
Chain of UniProt P00451 (P00451 20-2351): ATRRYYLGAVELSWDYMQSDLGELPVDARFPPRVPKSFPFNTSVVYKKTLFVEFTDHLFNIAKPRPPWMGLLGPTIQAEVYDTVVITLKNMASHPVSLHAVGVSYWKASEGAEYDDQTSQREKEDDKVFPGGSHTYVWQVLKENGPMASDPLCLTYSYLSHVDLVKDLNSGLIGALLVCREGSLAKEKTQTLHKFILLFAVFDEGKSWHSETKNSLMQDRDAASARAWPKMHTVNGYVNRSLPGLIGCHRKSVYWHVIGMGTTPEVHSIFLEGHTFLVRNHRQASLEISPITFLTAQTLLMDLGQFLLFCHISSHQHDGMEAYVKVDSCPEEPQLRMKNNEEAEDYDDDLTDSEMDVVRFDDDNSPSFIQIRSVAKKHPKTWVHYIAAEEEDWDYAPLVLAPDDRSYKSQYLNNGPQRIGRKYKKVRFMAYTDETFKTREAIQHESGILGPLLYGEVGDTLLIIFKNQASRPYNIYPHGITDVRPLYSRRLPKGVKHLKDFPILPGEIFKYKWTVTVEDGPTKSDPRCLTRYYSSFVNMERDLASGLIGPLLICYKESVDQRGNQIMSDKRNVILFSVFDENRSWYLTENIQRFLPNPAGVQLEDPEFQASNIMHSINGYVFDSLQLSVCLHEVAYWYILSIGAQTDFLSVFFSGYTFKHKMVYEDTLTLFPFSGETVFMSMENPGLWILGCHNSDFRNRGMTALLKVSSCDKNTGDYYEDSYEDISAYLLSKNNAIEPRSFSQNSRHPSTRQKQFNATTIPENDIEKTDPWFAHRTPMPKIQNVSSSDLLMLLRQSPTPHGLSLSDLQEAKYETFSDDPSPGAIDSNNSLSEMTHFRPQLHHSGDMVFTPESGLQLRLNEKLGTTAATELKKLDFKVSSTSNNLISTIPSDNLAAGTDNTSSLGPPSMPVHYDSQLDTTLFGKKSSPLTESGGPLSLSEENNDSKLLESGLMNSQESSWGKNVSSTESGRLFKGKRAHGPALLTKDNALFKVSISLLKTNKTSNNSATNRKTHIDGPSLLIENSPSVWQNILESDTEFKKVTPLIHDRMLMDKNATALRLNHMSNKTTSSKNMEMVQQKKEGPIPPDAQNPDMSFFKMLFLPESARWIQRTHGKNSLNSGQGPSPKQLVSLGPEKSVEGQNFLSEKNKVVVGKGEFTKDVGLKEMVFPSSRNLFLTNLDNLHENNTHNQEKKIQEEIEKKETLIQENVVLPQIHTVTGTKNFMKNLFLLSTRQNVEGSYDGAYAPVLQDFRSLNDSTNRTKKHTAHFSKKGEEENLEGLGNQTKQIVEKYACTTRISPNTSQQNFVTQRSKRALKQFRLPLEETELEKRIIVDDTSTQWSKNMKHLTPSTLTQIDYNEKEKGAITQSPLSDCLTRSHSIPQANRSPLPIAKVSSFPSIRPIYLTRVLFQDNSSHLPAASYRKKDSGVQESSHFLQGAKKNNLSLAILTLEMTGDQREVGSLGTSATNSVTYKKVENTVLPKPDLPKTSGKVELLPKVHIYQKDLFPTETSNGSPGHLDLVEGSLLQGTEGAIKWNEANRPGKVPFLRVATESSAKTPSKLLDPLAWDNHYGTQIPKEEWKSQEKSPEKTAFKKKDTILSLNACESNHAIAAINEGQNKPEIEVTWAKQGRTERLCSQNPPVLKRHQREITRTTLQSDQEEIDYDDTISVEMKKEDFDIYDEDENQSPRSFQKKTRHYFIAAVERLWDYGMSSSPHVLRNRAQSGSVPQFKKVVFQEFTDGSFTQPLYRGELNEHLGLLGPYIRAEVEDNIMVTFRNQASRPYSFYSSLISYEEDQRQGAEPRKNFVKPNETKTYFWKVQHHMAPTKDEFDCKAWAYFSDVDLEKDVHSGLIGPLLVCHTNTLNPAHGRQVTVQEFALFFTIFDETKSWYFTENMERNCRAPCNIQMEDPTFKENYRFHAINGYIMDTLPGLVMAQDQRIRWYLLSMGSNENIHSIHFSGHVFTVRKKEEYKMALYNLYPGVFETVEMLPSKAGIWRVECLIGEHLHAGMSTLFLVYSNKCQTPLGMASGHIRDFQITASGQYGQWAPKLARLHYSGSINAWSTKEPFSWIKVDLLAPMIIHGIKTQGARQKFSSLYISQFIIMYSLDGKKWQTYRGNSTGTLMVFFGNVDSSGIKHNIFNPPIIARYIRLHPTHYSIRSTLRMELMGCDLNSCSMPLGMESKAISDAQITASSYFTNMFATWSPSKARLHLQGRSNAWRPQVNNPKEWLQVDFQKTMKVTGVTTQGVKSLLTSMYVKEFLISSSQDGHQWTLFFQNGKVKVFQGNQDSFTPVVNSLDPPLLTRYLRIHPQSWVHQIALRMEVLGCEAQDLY

Take “von Willebrand Factor (from UniProt P04275 764-2813)”: the inhibition of hydrolysis of Factor VIII by anti-Factor VIII IgG turned out to be 36.9%.
